According to article PMC12572689, “Characterization of the Specific Binding Between Aptamers and Cytochrome c With Pressure‐Assisted Capillary Electrophoresis Frontal Analysis”:

Legend:
[1] = target: T1, cytochrome c (Equus caballus (equine heart), UniProt P00004 2-105); experiment: PACE-FA; mobility correction; n=1.10; 10 mM NH4OAc pH 6.8 (fluorescence: 2.0 uM cyt c, 2.0-14.0 uM aptamer, 30 min); PACE-FA: NH4OAc pH 6.8, HPC-coated capillary; temperature not stated; conditions: protein: commercial; tags: none
T1 sequence (P00004 2-105): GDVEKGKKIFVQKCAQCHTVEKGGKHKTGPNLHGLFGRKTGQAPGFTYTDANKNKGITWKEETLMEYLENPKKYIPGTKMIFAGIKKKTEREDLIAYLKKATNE

[2] = target: T1, cytochrome c; experiment: PACE-FA; raw data, uncorrected; n=1.06; 10 mM NH4OAc pH 6.8 (fluorescence: 2.0 uM cyt c, 2.0-14.0 uM aptamer, 30 min); PACE-FA: NH4OAc pH 6.8, HPC-coated capillary; temperature not stated; conditions: protein: commercial; tags: none
[3] = target: T1, cytochrome c; experiment: PACE-FA; specific binding fit; n=0.84; lambda 2.83e4 M-1; 10 mM NH4OAc pH 6.8 (fluorescence: 2.0 uM cyt c, 2.0-14.0 uM aptamer, 30 min); PACE-FA: NH4OAc pH 6.8, HPC-coated capillary; temperature not stated; conditions: protein: commercial; tags: none
[4] = target: T1, cytochrome c; experiment: fluorescence titration; cyt c emission at 292 nm; Benesi-Hildebrand; 10 mM NH4OAc pH 6.8 (fluorescence: 2.0 uM cyt c, 2.0-14.0 uM aptamer, 30 min); PACE-FA: NH4OAc pH 6.8, HPC-coated capillary; temperature not stated; conditions: protein: commercial, tags: none
[5] = target: T1, cytochrome c; experiment: PACE-FA; mobility correction; n=1.30; 10 mM NH4OAc pH 6.8 (fluorescence: 2.0 uM cyt c, 2.0-14.0 uM aptamer, 30 min); PACE-FA: NH4OAc pH 6.8, HPC-coated capillary; temperature not stated; conditions: protein: commercial; tags: none
[6] = target: T1, cytochrome c; experiment: PACE-FA; raw data, uncorrected; n=1.47; 10 mM NH4OAc pH 6.8 (fluorescence: 2.0 uM cyt c, 2.0-14.0 uM aptamer, 30 min); PACE-FA: NH4OAc pH 6.8, HPC-coated capillary; temperature not stated; conditions: protein: commercial; tags: none
[7] = target: T1, cytochrome c; experiment: PACE-FA; specific binding fit; n=1.22; lambda 7.11e3 M-1; 10 mM NH4OAc pH 6.8 (fluorescence: 2.0 uM cyt c, 2.0-14.0 uM aptamer, 30 min); PACE-FA: NH4OAc pH 6.8, HPC-coated capillary; temperature not stated; conditions: protein: commercial; tags: none
[8] = target: T1, cytochrome c; experiment: PACE-FA; mobility correction; n=1.85; 10 mM NH4OAc pH 6.8 (fluorescence: 2.0 uM cyt c, 2.0-14.0 uM aptamer, 30 min); PACE-FA: NH4OAc pH 6.8, HPC-coated capillary; temperature not stated; conditions: protein: commercial; tags: none; multi-loop structure (as claimed in text)
[9] = target: T1, cytochrome c; experiment: PACE-FA; raw data, uncorrected; n=2.05; 10 mM NH4OAc pH 6.8 (fluorescence: 2.0 uM cyt c, 2.0-14.0 uM aptamer, 30 min); PACE-FA: NH4OAc pH 6.8, HPC-coated capillary; temperature not stated; conditions: protein: commercial; tags: none; multi-loop structure (as claimed in text)
[10] = target: T1, cytochrome c; experiment: PACE-FA; specific binding fit; n=1.25; lambda 6.90e4 M-1; 10 mM NH4OAc pH 6.8 (fluorescence: 2.0 uM cyt c, 2.0-14.0 uM aptamer, 30 min); PACE-FA: NH4OAc pH 6.8, HPC-coated capillary; temperature not stated; conditions: protein: commercial; tags: none; multi-loop structure (as claimed in text)

Binder | Ka [1] | Ka [2] | Ka [3] | Ka [4] | Ka [5] | Ka [6] | Ka [7] | Ka [8] | Ka [9] | Ka [10] | Ka ([4]; multi-loop structure (as claimed in text))
CCGTGTCTGGGGCCGACCGGCGCATTGGGTACGTTGTTGC (ssDNA) [Apt40] | 545000 M⁻¹ | 2.01e+06 M⁻¹ | 840000 M⁻¹ | 151000 M⁻¹ | – | – | – | – | – | – | –
Apt61 (ssDNA) DNA: AGTGTGAAATATCTAAACTAAATGTGGAGGGTGGGACGGGAAGAAGTTTATTTTTCACACT | – | – | – | 625000 M⁻¹ | 643000 M⁻¹ | 1.06e+06 M⁻¹ | 712000 M⁻¹ | – | – | – | –
Apt76 (ssDNA) DNA: ATCGATAAGCTTCCAGAGCCGTGTCTGGGGCCGACCGGCGCATTGGGTACGTTGTTGCCGTAGAATTCCTGCAGCC | – | – | – | – | – | – | – | 676000 M⁻¹ | 1.65e+06 M⁻¹ | 1.53e+06 M⁻¹ | 868000 M⁻¹
